The target of assay [1] is T1, BMPR-1A/BMPR-1B (aortic SMC) (Homo sapiens, UniProt P36894).
T1 chain 1: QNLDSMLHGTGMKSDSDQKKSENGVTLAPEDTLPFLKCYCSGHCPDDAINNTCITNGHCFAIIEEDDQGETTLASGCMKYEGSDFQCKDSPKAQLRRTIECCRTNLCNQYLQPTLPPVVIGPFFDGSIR
T1 chain 2: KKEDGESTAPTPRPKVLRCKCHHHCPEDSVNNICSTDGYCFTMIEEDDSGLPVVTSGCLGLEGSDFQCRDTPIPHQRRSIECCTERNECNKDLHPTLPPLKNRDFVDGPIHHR
Put plainly: FITC-ligand cell membrane binding, Scatchard.

Assay [2] has as its target T2, BMPR-1A (aortic SMC, BMPR-1B siRNA) (Mus musculus, UniProt P36895).
T2 chain: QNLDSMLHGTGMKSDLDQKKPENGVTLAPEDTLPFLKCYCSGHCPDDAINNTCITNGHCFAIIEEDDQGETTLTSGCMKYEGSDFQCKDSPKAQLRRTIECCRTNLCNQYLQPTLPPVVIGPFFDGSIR
Put plainly: FITC-ligand cell membrane binding, Scatchard.

Assay [3] deals with T3, BMPR-1B (aortic SMC, BMPR-1A siRNA) (Mus musculus, UniProt P36898).
T3 chain: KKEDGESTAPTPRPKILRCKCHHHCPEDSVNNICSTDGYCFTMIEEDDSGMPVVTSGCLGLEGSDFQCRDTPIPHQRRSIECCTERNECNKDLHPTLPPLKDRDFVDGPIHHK
Put plainly: FITC-ligand cell membrane binding, Scatchard.

The target of assay [4] is T4, BMPR-1A/BMPR-1B (aortic SMC) (Mus musculus, UniProt P36895).
T4 chain 1: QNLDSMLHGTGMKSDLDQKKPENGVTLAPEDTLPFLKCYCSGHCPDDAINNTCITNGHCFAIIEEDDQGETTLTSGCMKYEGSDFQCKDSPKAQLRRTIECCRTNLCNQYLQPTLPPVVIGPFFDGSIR
T4 chain 2: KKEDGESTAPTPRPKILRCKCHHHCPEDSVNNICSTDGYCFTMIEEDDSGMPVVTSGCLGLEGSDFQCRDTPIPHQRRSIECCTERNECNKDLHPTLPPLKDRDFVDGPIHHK
Put plainly: FITC-ligand cell membrane binding, Scatchard.

The target of the next assay is T5, BMPR-2 (Mus musculus, UniProt O35607).
T5 chain: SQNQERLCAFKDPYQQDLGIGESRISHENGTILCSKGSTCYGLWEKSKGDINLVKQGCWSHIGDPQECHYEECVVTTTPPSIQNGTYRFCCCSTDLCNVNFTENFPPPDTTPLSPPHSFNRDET
Put plainly: FITC-ligand binding to transfected 293T, Scatchard.

The target of the next assay is T6, BMPR-1A/BMPR-1B (Mus musculus, UniProt P36895).
T6 chain 1: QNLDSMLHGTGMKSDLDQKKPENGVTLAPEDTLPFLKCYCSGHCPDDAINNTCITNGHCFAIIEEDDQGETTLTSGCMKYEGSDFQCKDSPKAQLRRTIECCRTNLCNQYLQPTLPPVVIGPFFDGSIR
T6 chain 2: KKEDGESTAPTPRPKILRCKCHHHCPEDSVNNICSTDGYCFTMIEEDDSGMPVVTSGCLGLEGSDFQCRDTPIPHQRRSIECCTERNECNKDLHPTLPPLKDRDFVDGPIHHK
The experiment in a line: FITC-ligand binding to transfected 293T, Scatchard.

The target of the next assay is T7, BMPR-1A (Mus musculus, UniProt P36895).
T7 chain: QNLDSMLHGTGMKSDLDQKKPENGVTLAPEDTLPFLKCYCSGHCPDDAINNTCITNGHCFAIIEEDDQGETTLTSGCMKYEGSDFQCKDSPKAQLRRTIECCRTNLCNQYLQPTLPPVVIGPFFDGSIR
The experiment in a line: FITC-ligand binding to transfected 293T, Scatchard.

The target in the next assay is T8, BMPR-1B (Mus musculus, UniProt P36898).
T8 chain: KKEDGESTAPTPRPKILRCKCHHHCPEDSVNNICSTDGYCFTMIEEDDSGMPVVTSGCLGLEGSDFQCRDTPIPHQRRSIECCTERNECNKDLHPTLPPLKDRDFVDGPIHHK
Put plainly: FITC-ligand binding to transfected 293T, Scatchard.

B1: EDN (protein)
chain: KPPQFTWAQWFETQHINMTSQQCTNAMQVINNYQRRCKNQNTFLLTTFANVVNVCGNPNMTCPSNKTRKNCHHSGSQVPLIHCNLTTPSPQNISNCRYAQTPANMFYIVACDNRDQRRDPPQYPVVPVHLDRII
Turning to B1, the Kd in assay [1] worked out at 11.6 nM.

B2: mEar1 (protein)
chain: LGQTPSQKFAIQHINNNTNLQCNVEMMRINRARRTCKGLNTFLHTSFANAVGVCGNPSGLCSDKRSQNCHNSSSRVHITVCNITSRATNYTQCRYQSRRSLEYYTVACDPRTPQDSPMYPVVPVHLDGTF
Regarding B2, the Kd in assay [2] stood at 9.14 nM; in assay [3] it was 11.1 nM; in assay [4], 15.8 nM; with BMPR-2 it was 6.09 nM; in the assay with BMPR-1A/BMPR-1B it was 15.5 nM; with BMPR-1A, 10.6 nM. Moreover, in the assay with BMPR-1B, the Kd is 9.45 nM.

B3: ECP (protein)
chain: RPPQFTRAQWFAIQHISLNPPRCTIAMRAINNYRWRCKNQNTFLRTTFANVVNVCGNQSIRCPHNRTLNNCHRSRFRVPLLHCDLINPGAQNISNCTYADRPGRRFYVVACDNRDPRDSPRYPVVPVHLDTTI
On to B3, for which, in assay [1], the Kd is 14.9 nM.

The term Kd denotes the constant that tells how readily two partners part at equilibrium.

The record behind these values is publication PMC10393071 (2023).
